Test results reported in US20170368168A1 (AGENUS, published 2017).

How the values were obtained:
[1] = target: T1, recombinant human TIM-3 Fc (R&D Systems, Cat#2365-TM) (human, UniProt P01857-1 100-330 = IgG part); assay: Luminex suspension array, antigen coupled to beads
T1 construct: also called rhTIM-3 Fc; human TIM-3/Fc chimera

[2] = target: T2, recombinant human TIM-1 His (R&D Systems, Cat#1750-TM) (human, UniProt Q96D42 21-295); assay: Luminex suspension array, antigen coupled to beads
T2 construct: also called rhTIM-1 His
T2 sequence (looked up): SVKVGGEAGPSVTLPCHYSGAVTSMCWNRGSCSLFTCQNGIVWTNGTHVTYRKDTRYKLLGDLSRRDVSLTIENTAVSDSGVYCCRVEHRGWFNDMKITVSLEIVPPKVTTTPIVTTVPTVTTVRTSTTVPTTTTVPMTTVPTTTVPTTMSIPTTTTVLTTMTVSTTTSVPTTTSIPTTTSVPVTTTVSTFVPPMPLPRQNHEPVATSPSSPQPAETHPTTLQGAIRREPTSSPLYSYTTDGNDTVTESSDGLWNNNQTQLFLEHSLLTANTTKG

[3] = target: T3, recombinant human TIM-4 His (R&D, Cat#2929-TM) (human, UniProt Q96H15 25-315); assay: Luminex suspension array, antigen coupled to beads
T3 construct: also called rhTIM-4 His
T3 sequence (looked up): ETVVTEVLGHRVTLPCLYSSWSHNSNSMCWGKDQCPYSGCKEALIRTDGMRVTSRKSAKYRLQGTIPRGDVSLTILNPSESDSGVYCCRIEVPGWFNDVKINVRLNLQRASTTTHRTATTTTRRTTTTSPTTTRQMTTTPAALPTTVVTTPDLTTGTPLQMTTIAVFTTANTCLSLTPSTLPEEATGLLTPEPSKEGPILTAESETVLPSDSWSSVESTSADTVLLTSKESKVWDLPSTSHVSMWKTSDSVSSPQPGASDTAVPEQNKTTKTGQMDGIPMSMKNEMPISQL

[4] = target: T4, human TIM-3 expressed on cells (human, UniProt Q8TDQ0 22-301); assay: flow cytometry, 1624-5 cells expressing human TIM-3
T4 construct: also called T cell immunoglobulin and mucin domain-3; HAVCR2
T4 sequence: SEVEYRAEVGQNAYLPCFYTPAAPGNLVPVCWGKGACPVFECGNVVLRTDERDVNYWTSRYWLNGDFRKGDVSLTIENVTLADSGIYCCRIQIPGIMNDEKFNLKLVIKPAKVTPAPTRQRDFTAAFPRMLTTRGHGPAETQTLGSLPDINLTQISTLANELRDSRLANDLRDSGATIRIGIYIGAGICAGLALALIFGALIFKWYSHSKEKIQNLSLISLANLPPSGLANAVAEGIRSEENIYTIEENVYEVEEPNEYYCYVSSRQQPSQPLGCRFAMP

B1: pab2088 (IgG1) (antibody, V domains shown)
VH: not shown
VL: DIQMTQSPSSLSASVGDRVTITCRASQGISNYLAWYQQKPGKVPKLLIYAASTLQSGVPSRFSGSGSGTDFTLTISRLEPEDFAVYYCQQYGSSPLTFGGGTKVEIK
- binding result [1]: binds
- binding result [2]: no binding (tested: 10 ng/ml, 100 ng/ml, and 1000 ng/ml)
- binding result [3]: no binding (tested: 10 ng/ml, 100 ng/ml, and 1000 ng/ml)
- binding result [4]: binds
